Data reported in patent US6797695.

Target: T1, Recombinant FGF-20 (rat, UniProt Q9EST9 1-212)
T1 construct: Immobilised on a CM5 sensor chip in the assay; also called recombinant rat FGF-20; rFGF-20
Experiment: SPR (BIACORE 2000), FGF-20 immobilised on CM5, receptor extracellular domain as analyte

T1 sequence (Q9EST9 other isoform, or with tags, fused parts or gaps limits assumed): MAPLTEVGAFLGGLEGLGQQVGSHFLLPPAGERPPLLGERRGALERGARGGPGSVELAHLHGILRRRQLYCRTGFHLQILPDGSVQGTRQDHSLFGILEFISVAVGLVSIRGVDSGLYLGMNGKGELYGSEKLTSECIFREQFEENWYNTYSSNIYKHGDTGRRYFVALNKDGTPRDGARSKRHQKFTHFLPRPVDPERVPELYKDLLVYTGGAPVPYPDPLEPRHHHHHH

B1: recombinant extracellular domain of FGFR-3c (receptor)
chain: ESLGTEQRVVGRAAEVPGPEPGQQEQLVFGSGDAVELSCPPPGGGPMGPTVWVKDGTGLVPSERVLVGPQRLQVLNASHEDSGAYSCRQRLTQRVLCHFSVRVTDAPSSGDDEDGEDEAEDTGVDTGAPYWTRPERMDKKLLAVPAANTVRFRCPAAGNPTPSISWLKNGREFRGEHRIGGIKLRHQQWSLVMESVVPSDRGNYTCVVENKFGSIRQTYTLDVLERSPHRPILQAGLPANQTAVLGSDVEFHCKVYSDAQPHIQWLKHVEVNGSKVGPDGTPYVTVLKTAGANTTDKELEVLSLHNVTFEDAGEYTCLAGNSIGFSHHSAWLVVLPAEEELVEADEAGSVYAG
B1 gave a Kd of 217 nM, a koff of 0.0247 s⁻¹ and a kon of 115000 M⁻¹ s⁻¹.
